Laboratory results taken from article PMC11865592 (Nature Communications, 2025).

B1: scFv p60.1 (scFv, V domains shown)
VH: EVQLQQSGPGLVKPSQTLSLICAISGDSVSTINAAWNWIRQSPSRGLEWLGRTYYRSKWYHEYATSVQGRIIITPDTSKNQFSLQLNSVTPEDSAVYFCARDRGPTPFDFWGQGTLVTVSS
VL: DIQMTQSPSSLSASVGDSVTITCRANQSISRSLNWYQQQPGKAPNLLIYAASHLHSGVSSRFSGSGSGADFALTISSLQPEDFATYHCQQSFVTPFTFGPGTKVDLK
notes: also called bnAb p60.1; nAb p60.1
B2: p60.1 scFv (SPR analyte) (scFv, V domains shown)
VH: B1 VH
VL: B1 VL
notes: also called scFv-p60.1
B3: scFv p60.12 (scFv, V domains shown)
VH: QVQLVQSGAEVKKPGSSVKVSCKASGDTFSSYVISWVRQAPGQGLEWMGGIIPIIGTANYAPKFQDTVTITADKSTNTVYMEMRSLRSEDTAVYYCASNVQLQRRGNWFDPWGQGTLVTVSS
VL: QSALTQPASVSGSPGQSITISCTGTSSDIGDYNFVSWYQQHPGKAPKLMIFDVTNRPSGVSNRFSGSKSGNTASLTISGLQVEDEADYYCSSYTSTNTPVVFGGGTKLTVL
notes: also called bnAb p60.12; nAb p60.12
B4: p60.12 scFv (SPR analyte) (scFv, V domains shown)
VH: B3 VH
VL: B3 VL
B5: murine bnAb 8G12 (antibody, V domains shown)
VH: QLQQSGPELVKPGASVKISCKASGYTFTDFNMHWVKQSHGKSLEWIGYIYPYNGITGQNQKFKSKATLTVDNSSSSAYMELRSLTSEDSAVYYCARERFGVGNNYAWFTYWGQGTLVTVSS
VL: DIQMTQSPASLSVSVGETVTITCRASENIYSNLVWYQQKQGKSPQVLVYAATNLPDGVPSRFSGSGSGTQYSLKINSLQSEDSGSYYCQHFWETPFTFGSGTKLEIK
notes: also called control bnAb 8G12
B6: scFv p60.15 (scFv, V domains shown)
VH: EVQLVQSGAELKKPGESLRISCKGSGYDFANYWIGWVRQMPGKGLEWMGIIYPRDSDIRYSPSFQGQVTISADKSISTAYLQLSSLKASDTAMYYCARHLRGLRLGELFPFDYWGQGTLVTVSS
VL: AIQLTQSPSSLSASVGDSVTITCRASQDIFSYLAWYQQKPGKAPKLLIYAASTLQSGVPSRFSGSGSGTDFTLTISSLQPEDFATYYCQQLNRYPFAFGPGTKVDIK
notes: also called bnAb p60.15; nAb p60.15
B7: p60.15 IgG1 (antibody, V domains shown)
VH: B6 VH
VL: B6 VL
notes: also called nAb p60.15; bnAb p60.15
B8: scFv p61.15 (scFv, V domains shown)
VH: QVQLVQSGAEVKKPGASVKVSCKASGYTFTNYFMHWVRQAPGQGLEWMGVFNPRGGSTTYAQKFQGRITMTSDPSTSTVYMELTSLTSEDTAMYYCARMGSVTGPVGHRWLDPWGQGTLVTVSS
VL: EIVLTQSPATLSLSPGERAALSCRASQSVDTYLAWYQQKPGQAPRLLIYDASTRAPGIPARFSGSGSGTDFTLTISSLEPEDFAVYYCQQRYNWPPITFGQGTRLEIK
notes: also called bnAb p61.15; nAb p61.15
B9: p61.15 scFv (SPR analyte) (scFv, V domains shown)
VH: B8 VH
VL: B8 VL
notes: also called scFv-p61.15
B10: p61.15 IgG1 (antibody, V domains shown)
VH: B8 VH
VL: B8 VL
notes: also called nAb p61.15; bnAb p61.15

Columns and labels:
Settings in all cases: both partners purified
[1] = biological target: T1, non-glycosylated HEV GT 1 pORF2 P domain (Hepatitis E virus genotype 1, isolate …, UniProt P33426, strain); test: SPR
T1 construct: also called HEV GT 1 P domain; source: Drosophila S2 cells, purified from cell lysates (Strep-Tactin XT, SEC); not shown: double strep tag, N-terminal, kept

[2] = biological target: T2, non-glycosylated HEV GT 4 pORF2 P domain (Hepatitis E virus genotype 4, isolate …, UniProt Q9IVZ8, strain); test: SPR
T2 construct: also called HEV GT 4 P domain; source: Drosophila S2 cells, purified from cell lysates (Strep-Tactin XT, SEC); not shown: double strep tag, N-terminal, kept

[3] = biological target: T3, non-glycosylated HEV GT 2 pORF2 P domain (Hepatitis E virus genotype 2, isolate …, UniProt Q03500, strain); test: SPR
T3 construct: also called HEV GT 2 P domain; source: Drosophila S2 cells, purified from cell lysates (Strep-Tactin XT, SEC); not shown: double strep tag, N-terminal, kept

[4] = biological target: T4, non-glycosylated rat HEV pORF2 P domain (Rat hepatitis E virus, R68/DEU/2009 in …, strain); test: SPR
T4 construct: also called rat HEV P domain; source: Drosophila S2 cells, purified from cell lysates (Strep-Tactin XT, SEC); not shown: double strep tag, N-terminal, kept

[5] = biological target: T5, non-glycosylated rat HEV pORF2 P domain (Rat hepatitis E virus, R68/DEU/2009 in …); test: SPR
T5 construct: not shown: double strep tag, N-terminal, kept

[6] = biological target: T6, non-glycosylated HEV GT 2 pORF2 P domain (Hepatitis E virus genotype 2, isolate …, UniProt Q03500, strain); test: ELISA; plates coated with 100 ng P domain per well in PBS overnight at 4 °C; antibody (IgG) at 2 μg/ml, 1 h at room temperature; HRP-conjugated goat anti-human antibody
T6 construct: also called GT 2 P domain; not shown: double strep tag, N-terminal, kept

[7] = biological target: T7, non-glycosylated HEV GT 4 pORF2 P domain (Hepatitis E virus genotype 4, isolate …, UniProt Q9IVZ8, strain); test: as above
T7 construct: also called GT 4 P domain; not shown: double strep tag, N-terminal, kept

[8] = biological target: T8, non-glycosylated HEV GT 3 pORF2 P domain dimer (amino acids 456-660), expressed in the cytosol (Hepatitis E virus genotype 3, isolate …, strain); test: as above
T8 construct: not shown: double strep tag, N-terminal, kept

[9] = biological target: T5, non-glycosylated rat HEV pORF2 P domain; test: as above
[10] = biological target: T9, non-glycosylated HEV GT 3 pORF2 P domain (Hepatitis E virus genotype 3, …); test: SPR
T9 construct: also called non-glycosylated GT 3 P domain; HEV GT3 P domain; not shown: double strep tag, N-terminal, kept

[11] = biological target: T10, glycosylated HEV GT 3 pORF2 P domain dimer (amino acids 456-660), secreted, carrying a glycan at N562 (Hepatitis E virus genotype 3, isolate …, strain); test: SPR
T10 construct: not shown: double strep tag, N-terminal, kept

[12] = biological target: T8, non-glycosylated HEV GT 3 pORF2 P …; test: SPR
[13] = biological target: T10, glycosylated HEV GT 3 pORF2 P domain …; test: ELISA; plates coated with 100 ng P domain per well in PBS overnight at 4 °C; antibody (IgG) at 2 μg/ml, 1 h at room temperature; HRP-conjugated goat anti-human antibody

Row | Binder | Kd [1] [nM] | koff [1] [s⁻¹] | Kd [2] [nM] | koff [2] [s⁻¹] | Kd [3] [nM] | koff [3] [s⁻¹] | binding result [9] | other results
1 | B1 | 0.0238 | 2.56e-05 | 0.0382 | 5.14e-05 | 0.128 | 8.16e-05 | – | Kd [4]: 4930 nM; koff [4]: 0.456 s⁻¹
2 | B2 | – | – | – | – | – | – | – | fold lower affinity than to the other four P domains [5]: ~1000 fold
3 | B3 | 3.29 | 0.000325 | 8.75 | 0.000609 | 0.509 | 2.96e-05 | – | Kd [4]: 5590 nM; koff [4]: 0.246 s⁻¹
4 | B4 | – | – | – | – | – | – | – | fold lower affinity than to the other four P domains [5]: ~1000 fold
5 | B5 | – | – | – | – | – | – | no binding | binding result [6]: binds; binding result [7]: binds; binding result [8]: binds
6 | B6 | – | – | – | – | – | – | – | Kd [10]: 0.166 nM; koff [10]: 5.18e-05 s⁻¹
7 | B7 | – | – | – | – | – | – | no binding (tested: 2 μg/ml) | –
8 | B8 | 1.51 | 0.000604 | 0.154 | 0.000142 | 0.896 | 0.000585 | – | Kd [10]: 0.0816 nM; koff [10]: 2.56e-05 s⁻¹
9 | B9 | – | – | – | – | – | – | – | binding result [11]: binds; binding result [12]: binds
10 | B10 | – | – | – | – | – | – | no binding (tested: 2 μg/ml) | binding result [13]: binds; binding result [8]: binds
